Reference: patent US7101989 (UNIVERSITY OF NORTH CAROLINA AT CHAPEL HILL, dated 2006)

Biological target: the molecule itself
Test: SDS-PAGE of outer membranes solubilised at 37 C or 100 C

B1: DsrA (Ducreyi Serum Resistance A protein) of H. ducreyi strain 35000 (other)
chain: QQPPKFAGVSSLYSYEYDYGKGKWTWSNEGGFDIKVPGIKMKPKEWISKQATYLELQHYMPYTPVLVTYAPGVSPSPILLYPMSDPDQLGINRQQLKLNLYSYFNDLRHDFKLKVLDARISKNKQNIDTISKYLLELGTYLDDSYRMMEQNTHNINKLSKELQTGLANQSALSMLVQPNGVGKTSVSAAVGGYRDKTALAIGVGSRITDRFTAKAGVAFNTYNGGMSYGASVGYEF
notes: In Western blots DsrA was denatured, from outer membranes or total cellular proteins; In the vitronectin experiment it was on whole surface-iodinated bacteria and was then solubilised in detergent; It forms multimers of unstated number; also called 30 kDa protein; 30 kDa band
  binding result: binds
